Experimental data from publication doi:10.1101/869289 (bioRxiv, 2019).

B1: Tim29 (natural protein, human, UniProt Q9BSF4 32-260, looked up)
chain: GSWARALLRDYAEACRDASAEARARPGRAAVYVGLLGGAAACFTLAPSEGAFEEALLEASGTLLLLAPATRNRESEAFVQRLLWLRGRGRLRYVNLGLCSLVYEAPFDAQASLYQARCRYLQPRWTDFPGRVLDVGFVGRWWVLGAWMRDCDINDDEFLHLPAHLRVVGPQQLHSETNERLFDEKYKPVVLTDDQVDQALWEEQVLQKEKKDRLALSQAHSLVQAEAPR
B2: Tim10a (natural protein, human, UniProt P62072 1-90, looked up)
chain: MDPLRAQQLAAELEVEMMADMYNRMTSACHRKCVPPHYKEAELSKGESVCLDRCVSKYLDIHERMGKKLTELSMQDEELMKRVQQSSGPA
B3: Tim10b (natural protein, human, UniProt Q9Y5J6 1-103, looked up)
chain: MERQQQQQQQLRNLRDFLLVYNRMTELCFQRCVPSLHHRALDAEEEACLHSCAGKLIHSNHRLMAAYVQLMPALVQRRIADYEAASAVPGVAAEQPGVSPSGS
B4: Tim9 (natural protein, human, UniProt Q9Y5J7 1-89, looked up)
chain: MAAQIPESDQIKQFKEFLGTYNKLTETCFLDCVKDFTTREVKPEETTCSEHCLQKYLKMTQRISMRFQEYHIQQNEALAAKAGLLGQPR
B5: Tim22 (natural protein, human, UniProt Q9Y584 1-194, looked up)
chain: MAAAAPNAGGSAPETAGSAEAPLQYSLLLQYLVGDKRQPRLLEPGSLGGIPSPAKSEEQKMIEKAMESCAFKAALACVGGFVLGGAFGVFTAGIDTNVGFDPKDPYRTPTAKEVLKDMGQRGMSYAKNFAIVGAMFSCTECLIESYRGTSDWKNSVISGCITGGAIGFRAGLKAGAIGCGGFAAFSAAIDYYLR

How the values were obtained:
Experiment in all cases: cryo-EM structure
[1] = target: T1, acylglycerol kinase (AGK) (human, UniProt Q53H12 1-422)
T1 sequence (looked up): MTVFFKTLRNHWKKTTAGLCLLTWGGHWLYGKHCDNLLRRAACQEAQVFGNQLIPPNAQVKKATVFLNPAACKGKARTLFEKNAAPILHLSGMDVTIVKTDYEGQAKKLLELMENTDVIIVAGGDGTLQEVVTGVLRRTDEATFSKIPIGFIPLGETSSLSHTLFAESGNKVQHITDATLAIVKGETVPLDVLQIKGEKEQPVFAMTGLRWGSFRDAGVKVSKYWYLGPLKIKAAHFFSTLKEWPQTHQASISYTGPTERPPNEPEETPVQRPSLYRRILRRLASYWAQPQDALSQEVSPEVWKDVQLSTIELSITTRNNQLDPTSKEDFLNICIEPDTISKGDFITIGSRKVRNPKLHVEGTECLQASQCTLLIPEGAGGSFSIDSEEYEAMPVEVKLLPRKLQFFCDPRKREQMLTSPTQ

[2] = target: B1
[3] = target: B5
[4] = target: B3
[5] = target: B2

Binder	binding result [1]	binding result [2]	binding result [3]	binding result [4]	stoichiometry N [5]
B1	binds	–	–	–	–
B2	binds	binds	binds	binds	–
B3	binds	binds	–	–	–
B4	binds	binds	binds	binds	1 Tim9:Tim10a (3:3 in the hexamer)
B5	–	binds	–	–	–
